Patent publication US20090041783A1 (MOCHIDA PHARMACEUTICAL, published 2009)

What was measured:
[1] = biological target: T1, cynomolgus monkey D1D2-human D3 chimeric GPVI-human Fc fusion protein (GPVI-FFH-hFc) (cynomolgus monkey (D1, D2) and human …); assay: SPR (BIACORE3000), GPVI-Fc on CM5 chip, antibody 1.25-40 nM as analyte, bivalent analyte fit
T1 construct: also called Monkey GPVI
Protocol: (§1) Dissociation constant for the anti-GPVI monoclonal antibody prepared in EXAMPLE 2 was measured using protein interaction analyzer BIACORE3000 (BIACORE). That is, to sensor chip, CM5 chip (BIACORE), GPVI substitution mutant (hGPVIHHH-hFc and FFH-hFc) that is prepared in EXAMPLE 1 was linked according to the manual. Then each antibody was diluted with HBS-EP buffer solution (BIACORE) to prepare a series of diluted solution from 1.25 to 40 nM, and analyzed with BIACORE3000. Every each antibody bound chip, the chip was regenerated with glycine buffer solution at pH1.5. The obtained result was analyzed with Bivalent analyte, the evaluation software (BIACORE) to calculate dissociation constant. It was shown that each anti-GPVI monoclonal antibody has a sufficient affinity to GPVI-HHH-hFc.

[2] = biological target: T2, human GPVI extracellular region-human Fc fusion protein (hGPVI-hFc) (human); assay: as above
T2 construct: Expressed in COS-1, purified on Protein A; also called GPVI-HHH-hFc; hGPVIHHH-hFc
T2 sequence (chain, as listed by the source limits assumed): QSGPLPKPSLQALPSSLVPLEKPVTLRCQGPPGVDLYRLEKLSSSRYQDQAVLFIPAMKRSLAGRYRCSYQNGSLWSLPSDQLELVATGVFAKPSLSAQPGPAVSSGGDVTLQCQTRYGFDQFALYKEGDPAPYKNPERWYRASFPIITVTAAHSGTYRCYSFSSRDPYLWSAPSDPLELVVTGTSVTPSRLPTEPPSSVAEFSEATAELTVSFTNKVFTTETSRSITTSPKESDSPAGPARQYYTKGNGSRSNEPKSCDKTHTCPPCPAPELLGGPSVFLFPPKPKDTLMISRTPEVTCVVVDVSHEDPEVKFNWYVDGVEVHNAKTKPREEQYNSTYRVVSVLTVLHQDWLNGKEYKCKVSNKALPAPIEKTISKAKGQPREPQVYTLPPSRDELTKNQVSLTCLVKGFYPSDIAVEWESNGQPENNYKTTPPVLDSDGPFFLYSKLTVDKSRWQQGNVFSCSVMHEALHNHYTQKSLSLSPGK
Protocol: as §1

[3] = biological target: T2, human GPVI extracellular region-human …; assay: ELISA on immobilised hGPVI-hFc, peroxidase-labelled anti-mouse immunoglobulin antibody
Protocol: Binding activity to the antigen was detected by ELISA. To each well of immunoplate immobilized with hGPVI-hFc (prepared by the method described in EXAMPLE 2 and the like), F1232-37-2 antibody and F1232-37-2 PEGylated antibody, wherein both antibodies had been adjusted to the same concentration, was added and the plate was incubated at 37° C. for one hour. The well was washed with saline containing 0.05% Tween20. Then 50 μL of peroxidase-labeled anti-mouse immunoglobulin antibody (DAKO, P260), which had been diluted by 1000-fold with 10% rabbit serum-containing D-PBS, was added to each well. After incubation at 37° C. for one hour, coloring reaction by the TMB substrate was done to measure an absorbance at 450 nm with plate spectro-photometer (Molecular Devices, Wako). As a result, it was confirmed that both F1232-37-2 antibody and PEGylated F1232-37-2 antibody have almost equivalent binding activity.

[4] = biological target: T2, human GPVI extracellular region-human …; assay: ELISA on immobilised hGPVI-hFc (GPVI antigen binding assay of Example 31)
[5] = biological target: T2, human GPVI extracellular region-human …; assay: ELISA on immobilised hGPVI-hFc; + A450 0.5-1.0, ++ 1.0-2.0, +++ more than 2.0
Protocol: The hGPVI-hFc prepared by EXAMPLE 1B was diluted with D-PBS to 2 μg/mL and added to immunoplate (Maxisorp NUNC) at 50 μL/well. After incubation at 37° C. for one hour, the well was washed five times with ion-exchanged water, and D-PBS (pH7.4) containing 2% StabilGuard (Surmodics) was added to each well in 100 μL for blocking. Next, culture supernatant was added to each well and incubated at 37° C. for one hour. After incubation, the well was washed three times with the saline containing 0.05% Tween20. Peroxidase-labeled anti-mouse immunoglobulin antibody (DAKO, P260) was 1000-fold diluted with D-PBS containing 10% rabbit serum and added to each well at 50 μL. After incubation at 37° C. for one hour, washing in a similar manner was performed and TMB solution (BioFix) was added to each well. After ten minutes at room temperature, the reaction was terminated with 0.5 M sulfuric acid solution. Subsequently, absorbance at 450 nm was measured with the plate spectrophotometer (Multiscan JX, Dainippon Pharmaceutical). As a result, the cell whose culture supernatant reacted to hGPVI-hFc was selected and a cloning with limiting dilution method (“The Introduction to Monoclonal Antibody Experimental Procedure” written by Tamie Andoh and Takeshi Chiba (Kodansha, p 83)) was performed. Eight days later, screening was done in a similar manner and the antibody which reacts to hGPVI-hFc was selected.
(§2) To analyze a property for each antibody obtained in EXAMPLE 13, binding to human GPVI-hFc, competition with F1232-37-2 described in EXAMPLE 4 and specificity for L9 loop were investigated. That is, as for the binding to human GPVI, according to the method of EXAMPLE 2, a binding activity to immobilized antigen was measured. For the binding activity, the range of absorbance from 0.5 to 1.0 is represented by “+”, from 1.0 to 2.0 by “++”, the range more than 2.0 by “+++”. The competitive test with F1232-37-2 was performed as follows. That is, according to the method by Nakane et al. (J. Histochem. Cytochem., 22, 1084, 1974), peroxidase (TOYOBO)-labeled F1232-37-2 antibody was prepared and an antibody concentration was calculated from the amount of the antibody used.

[6] = biological target: T2, human GPVI extracellular region-human …; assay: ELISA, collagen on plate, hGPVI-hFc plus antibody; +++ more than 50%, ++ 30-50%, + 10-30% inhibition
[7] = biological target: T2, human GPVI extracellular region-human …; assay: competition ELISA on hGPVI-hFc plate; competitor: peroxidase-labelled F1232-37-2; +++ more than 50%, ++ 30-50%, + 10-30% inhibition
Protocol: as §2
Next, by using the peroxidase-labeled antibody, the competitive test for a variety of purified antibody was performed. That is, 25 μL of the above labeled antibody and 25 μL of each purified antibody were added to well of hGP-hFc-immobilized plate. After incubation at 37° C. for one hour, the well was washed five times with the saline containing 0.05% Tween20, and the reaction mixture was developed with TMB solution (BioFix). After incubation at room temperature for 10 minutes, the reaction was terminated with 0.5 M sulfuric acid solution and an absorbance at 450 nm was measured with the plate spectrophotometer (Multi-Scan JX, Dainippon Pharmaceutical).

[8] = biological target: T2, human GPVI extracellular region-human …; assay: ELISA of hybridoma culture supernatant on coated hGPVI-hFc (selection criterion)
Protocol: Next, culture supernatant was added to each well and incubated at 37° C. for one hour. After incubation, the well was washed three times with the saline containing 0.05% Tween20. Peroxidase-labeled anti-mouse immunoglobulin antibody (DAKO, P260) was 1000-fold diluted with D-PBS containing 10% rabbit serum and added to each well at 50 μL. After incubation at 37° C. for one hour, washing in a similar manner was performed and TMB solution (BioFix) was added to each well. After ten minutes at room temperature, the reaction was terminated with 0.5 M sulfuric acid solution. Subsequently, absorbance at 450 nm was measured with the plate spectrophotometer (Multiscan JX, Dainippon Pharmaceutical). As a result, the cell whose culture supernatant reacted to hGPVI-hFc was selected and a cloning with limiting dilution method (“The Introduction to Monoclonal Antibody Experimental Procedure” written by Tamie Andoh and Takeshi Chiba (Kodansha, p 83)) was performed. Eight days later, screening was done in a similar manner and the antibody which reacts to hGPVI-hFc was selected.
After one week, hybridoma, which produces a desired antibody was screened using the binding property to hGPVI-hFc and hGPVI-mL9-hFc prepared in EXAMPLE 7 as an index. That is, the purified hGPVI-hFc or hGPVI-mL9-hFc, which was prepared in EXAMPLE 1, was diluted with D-PBS (pH7.4) to 1 μg/mL. And 50 μL/well of the solution was added to make hGPVI-hFc or hGPVI-mL9-hFc-coated plate using the same method as that of EXAMPLE 2. Next, a culture supernatant was added to each well, and after incubation at room temperature for one hour, by the same method as that of EXAMPLE 2, using peroxidase-labeled anti-mouse immunoglobulin antibody (DAKO, P260) a reaction was performed to measure an absorbance. As a result, the cell producing an antibody that binds to the purified hGPVI-hFc (absorbance: equal to or more than one), but not hGPVI-mL9-hFc (abdorbance: equal to or less than 0.5) was selected and cloned by the method described in EXAMPLE 2. Eight through ten days later, a screening was done as with the similar way to obtain a hybridoma producing an L9-specific mouse anti-human GPVI antibody. As with EXAMPLE 2B (3), the obtained hybridoma was cultured and a monoclonal antibody was purified. The sub-type of each antibody was determined using IsoStrip Mouse Monoclonal antibody Isotyping Kit (Roche).

T1 sequence (chain, as listed by the source mutant limits assumed): as the sequence (chain, as listed by the source limits assumed) above, with S2R, S61H, L78P, R166G, V181M, P442S counted along it

Binder	Kd [1] [nM]	Kd [2] [nM]	also measured
PEGylated F1232-37-2 antibody (antibody, V domains shown, linear PEG of 20 KD coupled through a succinimide group; sites not stated, Whole mouse F1232-37-2 reacted with PEG at antibody:PEG 1:10 (molar) and purified on Q Sepharose HP; also called F1232-37-2 PEGylated antibody) VH: VQLQQSGPELVRPGESVKISCKGSGYTFTDYAIHWVKLSHAKSLEWIGVISIYYDDTNYNQKFKGKATMTVDKSSSTAYLELARLTSEDSAIYYCARRRDSSGPYAMDYWGQGTSVTVSS VL: DIVLTQSPASLAVSLGQRATISCRASESVDSYGNSFMHWYQQKPGQPPKLLIYRASNLESGIPARFSGSGSRTDFTLTINPVEADDVATYYCQQSNEDPYTFGGGTKLEIKR			EC50 (read off the curve) [3]: ~0.02 µg/mL
F1232-24-1 (antibody, V domains shown, Mouse hybridoma monoclonal antibody) VH: VQLQQSGAELVRPGVSVKISCKGSGYTFTDYAMHWVKQSHAKSLEWIGVISTYYGDASYNQKFKGKATMTVDKSSSTAYMELARLTSEDSAIYYCARSYDYDPWFAYWGQGTLVTVSA VL: DIVLTQSPASLAVSLGQRATISCRASESVDNYGISFMHWYQQKPGQPPKLLIYRASNLESGIPARFSGSGSRTDFTLTINPVETDDVATYYCQQSNKDPLTFGAGTKLELKR	0.71	0.25	
F1232-18-3 (antibody, V domains shown, Mouse hybridoma monoclonal antibody) VH: VMLVESGGGLVKPGGSLKLSCAASGFTFSSYAMSWVRQTPEKRLEWVATISSGGSYTYYPDSVKGRFTISRDNAKNTLYLQMSSLRSADTAMYYCARDYGYFDYWGQGTTLTVSS VL: DIVLTQSPASLAVSLGQRATISCRASESVDNYGISFMHWYQQKPGQPPKLLFYRASNLESGIPARFSGSGSRTDFTLTINPVETDDVATYYCQQSNTDPRTFGGGTKLEIKR	365	1.65	
PEG-F1232-372Fab (Fab, V domains shown, linear 20 KD PEG with succinimide group; sites not given ; Linear 20 KD PEG with succinimide group coupled to the Fab; sites and number not given., also called PEGylated F1232-37-2 Fab antibody; PEGylated F1232-37-2Fab fragment; copies: 1 + 1) VH: VQLQQSGPELVRPGESVKISCKGSGYTFTDYAIHWVKLSHAKSLEWIGVISIYYDDTNYNQKFKGKATMTVDKSSSTAYLELARLTSEDSAIYYCARRRDSSGPYAMDYWGQGTSVTVSS VL: DIVLTQSPASLAVSLGQRATISCRASESVDSYGNSFMHWYQQKPGQPPKLLIYRASNLESGIPARFSGSGSRTDFTLTINPVEADDVATYYCQQSNEDPYTFGGGTKLEIK			EC50 (read off the curve) [4]: ~0.3 µg/mL
F1245-6-2 (antibody, V domains shown) VH: QVQLQQPGAELVKPGASVKLSCKASGYTFTSYWMHWVKQRPGQGLEWIGMIHPNSGSTNYNEKFKSKATLTVDKSSSTAYMQLSSLTSEDSAVYYCARGGVTPVAYWGQGTLVTVSA VL: SIVMTQTPKFLLVSAGDRVTITCKASQSVSNDVAWYQQKPGQSPKLLIYYASNRYTGVPYRFTGSGYGTDFTFTISTVQAEDLAVYFCQQDYSSPWTFGGGTKLEIKR			absorbance [5]: 1 to 2 od; percent inhibition [6]: 10 to 30%; percent inhibition [7]: > 50%; absorbance [8]: ≥ 1 absorbance

Second part, led by results:

Kd [1] [nM]	Kd [2] [nM]	Binder	also measured
343	34.7	F1232-7-1 (antibody, V domains shown, Mouse hybridoma monoclonal antibody; also called F1232-7-1 antibody) VH: VQLQQSGPELVRPGESVKISCKGSGYTFTDYAIHWVKLSHAKSLEWIGVISIYYDDTNYNQKFKGKATMTVDKSSSTAYMELARLTSEDSAIYYCARRRDSSGPYAMDYWGQGTSVTVSS VL: DIVLTQSPASLAVSLGQRATISCRASESVDSYGNSFMHWYQQKPGQPPKLLIYRASNLESGIPARFSGSGSRTDFTLTINPVEADDVATYYCQQSNEDPYTFGGGTKLEIKR	
0.619	1.16	F1201-18 (antibody, V domains shown, Mouse hybridoma monoclonal antibody) VH: VQLVESGGGLVKPGGSLKLSCAASGFTFSSYAMSWVRQTPEKRLEWVAIISSGGSYTYYPDSVKGRFTISRDNAKNTLYLHMSSLRSEDTAMYYCARQGGGYFDYWGQGTTLTVSS VL: DIVLTQSPASLAVSLGQRATISCRASESVDSYGNSFMHWYQQKPGQPPKLLIYRASNVESGIPARFSGSGSRTDFTLTINPVEADDVATYYCQQSNEDPPTFGAGTKLELKR	
0.177	0.522	F1232-17-1 (antibody, V domains shown, Mouse hybridoma monoclonal antibody) VH: VQLVESGGDLVKPGGSLKLSCAASGFTFSSYGMSWVRQTPDKRLEWVATISSGGSYTYYPDNVKGRFTISRDNAKNTLYLQMSSLNSEDTAMYYCARQVYYFGSCDYWGQGTTLTVSS VL: DIVLTQSPASLAVSLGQRATISCRASESVDNYGISFMHWYQQKPGQPPKLLIYRASNLESGIPARFSGSGSRTDFTLTINPVETDDVATYYCQQSNKDPWTFGGGTKLEIKR	
